How the values were obtained:
Experiment in all cases: two-hybrid library CCNG1;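 further: natural log of median RNA to DNA barcode read ratio; higher means stronger binding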
4H3926-bA = biological target: T1, 4H3926-bA; settings: mean of both orientations
T1 chain: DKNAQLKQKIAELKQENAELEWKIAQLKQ

4H4073-bA = biological target: T2, 4H4073-bA
T2 chain: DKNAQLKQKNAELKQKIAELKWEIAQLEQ

4H457-bA = biological target: T3, 4H457-bA
T3 chain: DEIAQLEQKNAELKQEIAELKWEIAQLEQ

4H575-bA = biological target: T4, 4H575-bA
T4 chain: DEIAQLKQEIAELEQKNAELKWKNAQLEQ

4H591-bA = biological target: T5, 4H591-bA
T5 chain: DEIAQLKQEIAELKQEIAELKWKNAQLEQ

4H626-bA = biological target: T6, 4H626-bA
T6 chain: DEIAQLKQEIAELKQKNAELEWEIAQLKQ

4H683-bA = biological target: T7, 4H683-bA
T7 chain: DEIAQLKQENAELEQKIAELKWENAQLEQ

4H754-bA = biological target: T8, 4H754-bA
T8 chain: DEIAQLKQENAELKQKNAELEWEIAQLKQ

4H780-bA = biological target: T9, 4H780-bA
T9 chain: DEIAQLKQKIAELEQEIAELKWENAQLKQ

4H797-bA = biological target: T10, 4H797-bA
T10 chain: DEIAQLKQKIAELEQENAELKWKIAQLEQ

4H855-bA = biological target: T11, 4H855-bA
T11 chain: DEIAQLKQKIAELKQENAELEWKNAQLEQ

4H906-bA = biological target: T12, 4H906-bA
T12 chain: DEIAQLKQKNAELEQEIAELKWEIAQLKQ

4H918-bA = biological target: T13, 4H918-bA
T13 chain: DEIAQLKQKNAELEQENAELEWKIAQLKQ

4H953-bA = biological target: T14, 4H953-bA
T14 chain: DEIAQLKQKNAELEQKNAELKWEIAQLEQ

4H968-bA = biological target: T15, 4H968-bA
T15 chain: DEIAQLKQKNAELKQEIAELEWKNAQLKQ

O8-bP = biological target: T16, O8-bP
T16 chain: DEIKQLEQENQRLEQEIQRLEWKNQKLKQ

O9-bP = biological target: T17, O9-bP
T17 chain: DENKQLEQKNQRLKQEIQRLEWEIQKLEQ

4H3974-bA = biological target: T18, 4H3974-bA
T18 chain: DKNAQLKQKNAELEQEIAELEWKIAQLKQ

4H570-bA = biological target: T19, 4H570-bA
T19 chain: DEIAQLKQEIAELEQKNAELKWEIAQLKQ

4H584-bA = biological target: T20, 4H584-bA
T20 chain: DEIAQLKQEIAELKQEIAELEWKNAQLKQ

4H619-bA = biological target: T21, 4H619-bA
T21 chain: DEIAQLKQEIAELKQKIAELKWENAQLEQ

4H850-bA = biological target: T22, 4H850-bA
T22 chain: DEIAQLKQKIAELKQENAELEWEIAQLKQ

4H4073-bH = biological target: T23, 4H4073-bH
T23 chain: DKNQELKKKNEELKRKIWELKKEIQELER

4H457-bH = biological target: T24, 4H457-bH
T24 chain: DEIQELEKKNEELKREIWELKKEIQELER

4H575-bH = biological target: T25, 4H575-bH
T25 chain: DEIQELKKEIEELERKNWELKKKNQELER

4H683-bH = biological target: T26, 4H683-bH
T26 chain: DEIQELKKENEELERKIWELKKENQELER

4H754-bH = biological target: T27, 4H754-bH
T27 chain: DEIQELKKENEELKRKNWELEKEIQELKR

4H780-bH = biological target: T28, 4H780-bH
T28 chain: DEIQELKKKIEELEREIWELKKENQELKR

4H797-bH = biological target: T29, 4H797-bH
T29 chain: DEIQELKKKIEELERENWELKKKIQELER

4H855-bH = biological target: T30, 4H855-bH
T30 chain: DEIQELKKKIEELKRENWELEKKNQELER

4H953-bH = biological target: T31, 4H953-bH
T31 chain: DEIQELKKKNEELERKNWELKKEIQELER

4H968-bH = biological target: T32, 4H968-bH
T32 chain: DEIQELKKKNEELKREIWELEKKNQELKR

4H591-bN = biological target: T33, 4H591-bN
T33 chain: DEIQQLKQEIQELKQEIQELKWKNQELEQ

4H3974-bN = biological target: T34, 4H3974-bN
T34 chain: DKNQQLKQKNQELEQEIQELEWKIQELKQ

4H570-bN = biological target: T35, 4H570-bN
T35 chain: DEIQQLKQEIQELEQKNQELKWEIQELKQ

4H584-bN = biological target: T36, 4H584-bN
T36 chain: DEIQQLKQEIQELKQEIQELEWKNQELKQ

4H619-bN = biological target: T37, 4H619-bN
T37 chain: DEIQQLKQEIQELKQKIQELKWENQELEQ

4H850-bN = biological target: T38, 4H850-bN
T38 chain: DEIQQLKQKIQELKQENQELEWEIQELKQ

4H906-bN = biological target: T39, 4H906-bN
T39 chain: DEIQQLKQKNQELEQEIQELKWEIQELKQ

DKNAQLKQKIAELKQENAELEWKIAQLKQ [4H3926-bA]
interaction score (4H3926-bA): -0.117
interaction score (4H4073-bA): -0.409
interaction score (4H457-bA): 0.866
interaction score (4H575-bA): 0.34
interaction score (4H591-bA): -1.19
interaction score (4H626-bA): -0.259
interaction score (4H683-bA): -0.786
interaction score (4H754-bA): -0.909
interaction score (4H780-bA): -0.771
interaction score (4H797-bA): 0
interaction score (4H855-bA): -1.23
interaction score (4H906-bA): -1.13
interaction score (4H918-bA): -0.539
interaction score (4H953-bA): 0.769
interaction score (4H968-bA): 1.59

DEIKQLEQENQRLEQEIQRLEWKNQKLKQ [O8-bP]
interaction score (O8-bP): -1.1
interaction score (O9-bP): -0.57

DKNAQLKQKNAELEQEIAELEWKIAQLKQ [4H3974-bA]
interaction score (4H3974-bA): -0.293
interaction score (4H570-bA): -0.136
interaction score (4H584-bA): -1.38
interaction score (4H619-bA): -0.503
interaction score (4H850-bA): -1.84
interaction score (4H906-bA): -1.37

DKNQELKKKNEELKRKIWELKKEIQELER [4H4073-bH]
interaction score (4H4073-bH): -0.834
interaction score (4H457-bH): -0.419
interaction score (4H575-bH): -1.03
interaction score (4H683-bH): -0.249
interaction score (4H754-bH): -1.38
interaction score (4H780-bH): -0.609
interaction score (4H797-bH): -0.554
interaction score (4H850-bA): -2.46
interaction score (4H855-bH): -1.09
interaction score (4H953-bH): -1.39
interaction score (4H968-bH): -1.06

DEIAQLKQEIAELKQEIAELEWKNAQLKQ [4H584-bA]
interaction score (4H584-bA): 0.598
interaction score (4H591-bN): -0.664
interaction score (4H619-bA): 1.1
interaction score (4H850-bA): 0.521
interaction score (4H906-bA): -0.288

DKNQQLKQKNQELEQEIQELEWKIQELKQ [4H3974-bN]
interaction score (4H3974-bN): -0.444
interaction score (4H570-bN): -1.69
interaction score (4H584-bN): -0.919
interaction score (4H619-bN): -0.273
interaction score (4H850-bN): 0.5
interaction score (4H906-bN): -0.832
